# According to patent US20150344570A1 (published 2015):
# B1: GpH7-A5/GpH7-B3 variant S267_01G/GpL16-k0 (antibody, human IgG1, kappa)
# heavy 1: not shown
# heavy 2: not shown
# light: DIVMTQSPLSLPVTPGEPASISCQASESLVHSNRNTYLHWYLQKPGQSPQLLIYKVSNRFSGVPDRFSGSGSGTDFTLKISRVEAEDVGVYYCSQNTHVPPTFGQGTKVEIERTVAAPSVFIFPPSDEQLKSGTASVVCLLNNFYPREAKVQWKVDNALQSGNSQESVTEQDSKDSTYSLSSTLTLSKADYEKHKVYACEVTHQGLSSPVTKSFNRGEC
# notes: He Ab; alteration in one H chain only; also called He Ab
# B2: GpH7-A5/GpH7-B3 variant V266_19Q/GpL16-k0 (antibody, human IgG1, kappa)
# heavy 1: not shown
# heavy 2: not shown
# light: B1 light
# notes: as for B1
# B3: GpH7-A5/GpH7-B3 variant H268_19Q/GpL16-k0 (antibody, human IgG1, kappa)
# heavy 1: not shown
# heavy 2: not shown
# light: B1 light
# notes: as for B1
# B4: GpH7-A5/GpH7-B3 variant S267_08L/GpL16-k0 (antibody, human IgG1, kappa)
# heavy 1: not shown
# heavy 2: not shown
# light: B1 light
# notes: as for B1
# B5: GpH7-A5/GpH7-B3 variant S267_06M/GpL16-k0 (antibody, human IgG1, kappa)
# heavy 1: not shown
# heavy 2: not shown
# light: B1 light
# notes: as for B1
# B6: GpH7-A5/GpH7-B3 variant H268_01G/GpL16-k0 (antibody, human IgG1, kappa)
# heavy 1: not shown
# heavy 2: not shown
# light: B1 light
# notes: as for B1
# B7: GpH7-A5/GpH7-B3 variant K326_02A/GpL16-k0 (antibody, human IgG1, kappa)
# heavy 1: not shown
# heavy 2: not shown
# light: B1 light
# notes: as for B1
# B8: GpH7-A5/GpH7-B3 variant V266_20W/GpL16-k0 (antibody, human IgG1, kappa)
# heavy 1: not shown
# heavy 2: not shown
# light: B1 light
# notes: as for B1
# B9: GpH7-A5/GpH7-B3 variant V266_16H/GpL16-k0 (antibody, human IgG1, kappa)
# heavy 1: not shown
# heavy 2: not shown
# light: B1 light
# notes: as for B1
# B10: GpH7-A5/GpH7-B3 variant H268_10E/GpL16-k0 (antibody, human IgG1, kappa)
# heavy 1: not shown
# heavy 2: not shown
# light: B1 light
# notes: as for B1
# B11: GpH7-A5/GpH7-B3 variant S267_04F/GpL16-k0 (antibody, human IgG1, kappa)
# heavy 1: not shown
# heavy 2: not shown
# light: B1 light
# notes: as for B1
# B12: GpH7-A5/GpH7-B3 variant P271_14T/GpL16-k0 (antibody, human IgG1, kappa)
# heavy 1: not shown
# heavy 2: not shown
# light: B1 light
# notes: as for B1
# B13: GpH7-A5/GpH7-B3 variant P271_09D/GpL16-k0 (antibody, human IgG1, kappa)
# heavy 1: not shown
# heavy 2: not shown
# light: B1 light
# notes: as for B1
# B14: GpH7-A5/GpH7-B3 variant S298_08L/GpL16-k0 (antibody, human IgG1, kappa)
# heavy 1: not shown
# heavy 2: not shown
# light: B1 light
# notes: as for B1
# B15: GpH7-A5/GpH7-B3 variant P271_10E/GpL16-k0 (antibody, human IgG1, kappa)
# heavy 1: not shown
# heavy 2: not shown
# light: B1 light
# notes: as for B1
# B16: GpH7-A5/GpH7-B3 variant H268_02A/GpL16-k0 (antibody, human IgG1, kappa)
# heavy 1: not shown
# heavy 2: not shown
# light: B1 light
# notes: as for B1
# B17: GpH7-A5/GpH7-B3 variant H268_05P/GpL16-k0 (antibody, human IgG1, kappa)
# heavy 1: not shown
# heavy 2: not shown
# light: B1 light
# notes: as for B1
# B18: GpH7-A5/GpH7-B3 variant S267_19Q/GpL16-k0 (antibody, human IgG1, kappa)
# heavy 1: not shown
# heavy 2: not shown
# light: B1 light
# notes: as for B1
# B19: GpH7-A5/GpH7-B3 variant H268_13S/GpL16-k0 (antibody, human IgG1, kappa)
# heavy 1: not shown
# heavy 2: not shown
# light: B1 light
# notes: as for B1
# B20: GpH7-A5/GpH7-B3 variant K326_03V/GpL16-k0 (antibody, human IgG1, kappa)
# heavy 1: not shown
# heavy 2: not shown
# light: B1 light
# notes: as for B1
# B21: GpH7-A5/GpH7-B3 variant S267_03V/GpL16-k0 (antibody, human IgG1, kappa)
# heavy 1: not shown
# heavy 2: not shown
# light: B1 light
# notes: as for B1
# B22: GpH7-A5/GpH7-B3 variant S267_14T/GpL16-k0 (antibody, human IgG1, kappa)
# heavy 1: not shown
# heavy 2: not shown
# light: B1 light
# notes: as for B1
# B23: GpH7-A5/GpH7-B3 variant S267_07I/GpL16-k0 (antibody, human IgG1, kappa)
# heavy 1: not shown
# heavy 2: not shown
# light: B1 light
# notes: as for B1
# B24: GpH7-A5/GpH7-B3 variant S267_10E/GpL16-k0 (antibody, human IgG1, kappa)
# heavy 1: not shown
# heavy 2: not shown
# light: B1 light
# notes: as for B1
# B25: GpH7-A5/GpH7-B3 variant P271_01G/GpL16-k0 (antibody, human IgG1, kappa)
# heavy 1: not shown
# heavy 2: not shown
# light: B1 light
# notes: as for B1
# B26: GpH7-A5/GpH7-B3 variant S267_15Y/GpL16-k0 (antibody, human IgG1, kappa)
# heavy 1: not shown
# heavy 2: not shown
# light: B1 light
# notes: as for B1
# B27: GpH7-A5/GpH7-B3 variant S267_20W/GpL16-k0 (antibody, human IgG1, kappa)
# heavy 1: not shown
# heavy 2: not shown
# light: B1 light
# notes: as for B1
# B28: GpH7-A5/GpH7-B3 variant S267_02A/GpL16-k0 (antibody, human IgG1, kappa)
# heavy 1: not shown
# heavy 2: not shown
# light: B1 light
# notes: as for B1
# B29: GpH7-A5/GpH7-B3 variant H268_09D/GpL16-k0 (antibody, human IgG1, kappa)
# heavy 1: not shown
# heavy 2: not shown
# light: B1 light
# notes: as for B1
# B30: GpH7-A5/GpH7-B3 variant S267_09D/GpL16-k0 (antibody, human IgG1, kappa)
# heavy 1: not shown
# heavy 2: not shown
# light: B1 light
# notes: as for B1
# B31: GpH7-A5/GpH7-B3 variant S267_05P/GpL16-k0 (antibody, human IgG1, kappa)
# heavy 1: not shown
# heavy 2: not shown
# light: B1 light
# notes: as for B1
# B32: GpH7-A5/GpH7-B3 variant S267_16H/GpL16-k0 (antibody, human IgG1, kappa)
# heavy 1: not shown
# heavy 2: not shown
# light: B1 light
# notes: as for B1
# B33: GpH7-A5/GpH7-B3 variant H268_18N/GpL16-k0 (antibody, human IgG1, kappa)
# heavy 1: not shown
# heavy 2: not shown
# light: B1 light
# notes: as for B1
# Target: T1, FcγRIIb, extracellular domain with C-terminal His tag (human, UniProt P31994 43-217)
# T1 construct: extracellular domain; also called 2b; FcgRIIb; not shown: His tag at the C terminus
# T1 sequence (looked up): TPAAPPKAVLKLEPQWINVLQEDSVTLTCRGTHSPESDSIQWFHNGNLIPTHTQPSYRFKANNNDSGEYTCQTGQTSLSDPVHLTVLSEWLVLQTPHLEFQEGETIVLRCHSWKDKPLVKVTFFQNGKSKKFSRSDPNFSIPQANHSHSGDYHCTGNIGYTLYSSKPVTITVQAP
# Test: SPR (Biacore), relative binding, GpH7-A5/GpH7-B3/GpL16-k0 = 100
row,Binder,He/Con_2b
1,B1,105 % of control
2,B2,89.2 % of control
3,B3,133 % of control
4,B4,109 % of control
5,B5,210 % of control
6,B6,144 % of control
7,B7,139 % of control
8,B8,71.9 % of control
9,B9,57.2 % of control
10,B10,230 % of control
11,B11,48 % of control
12,B12,95.4 % of control
13,B13,120 % of control
14,B14,108 % of control
15,B15,109 % of control
16,B16,167 % of control
17,B17,116 % of control

row,Binder,He/Con_2b
1,B18,218 % of control
2,B19,160 % of control
3,B20,175 % of control
4,B21,192 % of control
5,B22,104 % of control
6,B23,192 % of control
7,B24,379 % of control
8,B25,193 % of control
9,B26,37.9 % of control
10,B27,57.2 % of control
11,B28,243 % of control
12,B29,239 % of control
13,B30,310 % of control
14,B31,31.5 % of control
15,B32,65.9 % of control
16,B33,156 % of control

# Target: T2, FcγRIIa H (FcgRIIa type H, His at position 131), extracellular domain with C-terminal His tag (human, UniProt P12318 34-217)
# T2 construct: extracellular domain; also called 2aH; FcgRIIa H; not shown: His tag at the C terminus
# T2 sequence (looked up): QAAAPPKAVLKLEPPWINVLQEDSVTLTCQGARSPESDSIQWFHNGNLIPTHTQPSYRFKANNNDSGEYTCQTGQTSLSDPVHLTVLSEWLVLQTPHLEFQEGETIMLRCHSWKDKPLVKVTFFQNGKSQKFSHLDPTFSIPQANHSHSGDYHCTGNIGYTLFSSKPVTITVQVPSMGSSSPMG
# Test: as above
row,Binder,He/Con_2aH
1,B1,71.3 % of control
2,B2,46.4 % of control
3,B3,102 % of control
4,B4,29 % of control
5,B5,34.3 % of control
6,B6,99.2 % of control
7,B7,106 % of control
8,B8,12 % of control
9,B9,21.2 % of control
10,B10,124 % of control
11,B11,22.7 % of control
12,B12,60.9 % of control
13,B13,70.1 % of control
14,B14,85 % of control
15,B15,63.1 % of control
16,B16,114 % of control
17,B17,81.8 % of control

row,Binder,He/Con_2aH
1,B18,61.3 % of control
2,B19,112 % of control
3,B20,97 % of control
4,B21,50.8 % of control
5,B22,63.3 % of control
6,B23,34.7 % of control
7,B24,102 % of control
8,B25,107 % of control
9,B26,19.6 % of control
10,B27,37.9 % of control
11,B28,120 % of control
12,B29,133 % of control
13,B30,105 % of control
14,B31,25.1 % of control
15,B32,29.8 % of control
16,B33,112 % of control

# Target: T2, FcγRIIa H (FcgRIIa type H, His at …)
# Test: SPR; He/Con_2aH divided by He/Con_2b (FcγRIIa H binding over FcγRIIb binding)
row,Binder,He_2aH/2b (IIaH/IIb) [ratio]
1,B1,0.68
2,B2,0.52
3,B3,0.77
4,B4,0.27
5,B5,0.16
6,B6,0.69
7,B7,0.76
8,B8,0.17
9,B9,0.37
10,B10,0.54
11,B11,0.47
12,B12,0.64
13,B13,0.58
14,B14,0.78
15,B15,0.58
16,B16,0.68
17,B17,0.7

row,Binder,He_2aH/2b (IIaH/IIb) [ratio]
1,B18,0.28
2,B19,0.7
3,B20,0.55
4,B21,0.26
5,B22,0.61
6,B23,0.18
7,B24,0.27
8,B25,0.55
9,B26,0.52
10,B27,0.66
11,B28,0.49
12,B29,0.55
13,B30,0.34
14,B31,0.8
15,B32,0.45
16,B33,0.72
